Experimental data: paper PMC12269619 (2025)

B1: m42.127 Fab / Biotinylated junctional peptide Pep21 (PfCSP peptide 21) [modified: biotin (position not stated); biotin (position not stated)] [Plasmodium falciparum (clone 3D7)] (parent complex)
chain 1: QVQLVQSGAEVKKPGASVKVSCKASGYTFTSYAIHWVRQAPGQRLEWMGWIKAGNGNTRYSQKFQDRVTITRDTSASTAYMELSSLRSEDTAVYYCALLTVITPDDTFDIWGQGTMVTVSSASTKGPSVFPLAPSSKSTSGGTAALGCLVKDYFPEPVTVSWNSGALTSGVHTFPAVLQSSGLYSLSSVVTVPSSSLGTQTYICNVNHKPSNTKVDKKVEPKSCDKGLEVLFQ
chain 2: not shown
chain 3: NPDPNANPNVDPNAN

Variants of: B1
Assay: BLI; read off a plot

Variant | Kd [nM]
chain 1 Y32K | ~18
chain 1 T103K | ~15
chain 1 T100M | ~24
chain 1 P104M | ~22
chain 1 P104Q | ~20
chain 1 T103R, chain 1 P104Q | ~18
chain 1 T103R, chain 1 P104R | ~15
